Consider one molecule from patent US20200299373A1.

Assay [1] addresses recombinant human FAM19A5 protein (His-tagged) (human) (UniProt Q7Z5A7). The experiment in a line: ELISA on N'-Term His FAM19A5, fit of the titration; R2 printed 0.9746. (In general: ELISA stands for enzyme-linked immunosorbent assay.)
Assay [2] has the same target. The assay is described as follows: ELISA on N'-Term His FAM19A5, fit of the titration (OD 492 nm); R2 printed 0.9746.
The target is the same in assay [3]. The experiment in a line: two-site sandwich ELISA; capture antibody 3-2; biotinylated detection antibody P2-A03; antigen in ng/mL.
For assay [4] the target is unchanged. The experiment in a line: two-site sandwich ELISA; capture antibody 1-65; biotinylated detection antibody P2-A03; antigen in ng/mL.
Assay [5] has the same target. The assay is described as follows: two-site sandwich ELISA; capture antibody 13B4; biotinylated detection antibody P2-A03; antigen in ng/mL.
For assay [6] the target is unchanged. The assay is described as follows: two-site sandwich ELISA; capture antibody 2-13; biotinylated detection antibody P2-A03; antigen in ng/mL.
Assay [7] shares this target. The experiment in a line: two-site sandwich ELISA; capture antibody P2-F11; biotinylated detection antibody P2-A03; antigen in ng/mL.
For assay [8] the target is unchanged. The assay is described as follows: two-site sandwich ELISA; capture antibody 3-2; S/N = O.D. at 10 ng/mL antigen / O.D. at 0 ng/mL; O.D. in column 0 printed 0.16.
For assay [9] the target is unchanged. The assay is described as follows: two-site sandwich ELISA; capture antibody 1-65; S/N = O.D. at 10 ng/mL antigen / O.D. at 0 ng/mL; O.D. in column 0 printed 0.15.
Assay [10] has the same target. The experiment in a line: two-site sandwich ELISA; capture antibody 13B4; S/N = O.D. at 10 ng/mL antigen / O.D. at 0 ng/mL; O.D. in column 0 printed 0.22.
Assay [11] shares this target. The assay is described as follows: two-site sandwich ELISA; capture antibody 2-13; S/N = O.D. at 10 ng/mL antigen / O.D. at 0 ng/mL; O.D. in column 0 printed 0.22.
The target is the same in assay [12]. The assay is described as follows: two-site sandwich ELISA; capture antibody P2-F11; S/N = O.D. at 10 ng/mL antigen / O.D. at 0 ng/mL; O.D. in column 0 printed 0.14.

B1: anti-FAM19A5 antibody P2-A03 (antibody, V domains shown)
VH: QSVEESGGRLVTPGTPLTLTCTVSGFSLNNYDMSWVRQAPGKGLEYIGFMDTDGSAYYATWAKGRFTISRTSTTVDLKMTSPTTEDTATYFCARRGSSYYGGIDIWGPGTPVTVSL
VL: ELDLTQTPASVSEPVGGTVTIKCQASQSIGGNLAWYQQKPGQPPKLLIYRASTLASGVPSRFKGSGSGTDFTLTISDLECADAATYYCQSPAYDPAAYVGNAFGGGTELEILR
modifications: Biotinylated when used as detection antibody in FIG. 6B.
One may read the Kd as the concentration at which binding is half-saturated. On to B1, for which the dissociation constant Kd in [1] came to 610 pM. Besides, in [2], the Bmax is 3.37. The O.D., antigen 100 was found to be 1.91 in assay [3]; 0.16 in [4]; 0.27 in [5]; 1.88 in assay [6]; 0.15 in assay [7]. Moreover, the O.D., antigen column 10 in [3] is 1.66; in assay [4], 0.15; in [5], 0.22; in assay [6], 1.72; in assay [7] it was 0.15. Further, the S/N in assay [8] amounted to 10; in assay [9] it was 1; in assay [10], 1; in [11], 7.8; in assay [12] it was 1.1.
